Entries after “also recorded” stand apart in the source; their conditions may differ.
Assays:
Pra1 = assay: Inhibition of proteolytic activity of Pra1 by specific inhibitors; format: biochemical, T. harzianum; settings: 1 mM inhibitor, preincubation 30 minutes at 30° C., pH 7.5
Description: In order to determine the catalytic type to which Pra1 belongs, specific inhibitors were used of the different known catalytic mechanisms. The effect of said inhibitors on the activity of Pra1 was analysed by preincubating the enzymatic solution for 30 minutes at 30° C. in 100 mM phosphate buffer pH 7.5 with said specific inhibitors of different known catalytic mechanisms:
1 mM PMSF (100 mM initial solution in isopropanol),
1 mM EDTA (100 mM initial solution in water),
0.1 mM Pepstatin (10 mM initial solution in DMSO),
1 mM Iodoacetamide (100 mM initial solution in water, prepared at the time of use).
In parallel to the enzymatic assay, controls were also performed in the presence of organic solvent in which the inhibitor was dissolved. The residual activity was determined by the percentage of activity in absence of inhibitor.

[1] = format: physicochemical; settings: preincubation 24 hours at 4° C.
Description: (§1) For the determination of the optimum pH for activity of Pra1, the assay was carried out in the following buffer systems: 100 mM sodium acetate (pH 3-5.5), 100 mM sodium phosphate (pH 6-7), and 100 mM Tris/HCl (pH 7.5-9). The effect of pH on the stability of Pra1 was determined by pre-incubating the enzymatic solution (750 ng) for 24 hours at 4° C. in […] of the aforementioned buffers. Then, aliquots of 10 μl were taken for performing the assay in standard conditions.
The activity decreased as the pH of preincubation increased, with a reduction of 40% at pH 7.

[2] = Isoelectric point by chromatofocussing; format: physicochemical; settings: observed
Description: The purification of enzymes with proteolytic activity obtained from the protocol described in Example 1 was performed from the culture filtrate of T. harzianum CECT 2413 kept for 48 hours in a MM medium with cell walls of C. acutatum as the carbon source. To do this, 2 ml of filtrate dialysed and concentrated 75 times were submitted to chromatofocussing to separate proteins on the basis of their isoelectric point. The elution profiles obtained show two peaks of proteolytic activity on azocasein, one eluted at basic pH, coinciding with the main protein peak, and another at acid pH.

[3] = Effect of pH on the activity of Pra1; format: biochemical
Description: as §1

[4] = Determination of kinetic parameters Km, Kcat, Kcat/Km (Lineweaver-Burk); format: biochemical; settings: Arg-pNA 0.05-2 mM, 30° C., pH 7.5
Description: The determination of the kinetic parameters Km, Kcat, and Kcat/Km was performed from the initial rates calculated in assays with different concentrations of substrate (0.05-2 mM). For this, the substrate was prepared in 0.99 ml of 100 mM sodium phosphate buffer pH 7.5 and preincubated at 30° C. Then the reaction was started by the addition of 10 μl of the purified proteases Pra1 (2.5 ppm) preheated to the same temperature. The activity was monitored for 10 minutes in a Shimadzu UV-160A spectrophotometer at 405 nm kept at 30 ? C by a thermostatA unit of activity represented the release of one 1 nmol of p-NA per minute in the assay conditions. Solutions of enzymes without substrate, and substrate without enzyme were prepared as blanks. The standard calibration curve was constructed with solutions of p-NA (Sigma) at known concentrations (0-200 μM), prepared as indicated above. The kinetic parameters were calculated from representations of double reciprocals or by Lineweaver-Burk (1/V vs 1/S).

[5] = Endopeptidase activity on synthetic peptide substrate for trypsins; format: biochemical; settings: optimum conditions of activity (30° C. and pH 7.5); 1 U = 1 nmol p-NA per minute
Description: (§2) Taking into account the information obtained in Example 3.2, the endopeptidase activity of Pra1 on 3 synthetic peptides (Sigma) is assayed with the amino and carboxyl terminals blocked, with allows the different types of activities to be differentiated within the S1 family of peptidases:
N-acetyl-Ile-Glu-Ala-Arg-pNA (Arg-pNA) for trypsins,
(§3) The enzymatic solution (75 ng) was prepared in 90 μl of 100 mM sodium phosphate buffer and preincubated for 5 minutes at 30° C. The reactions were initiated by addition of 10 μl of preheated 10 mM substrate solution (prepared from 100 mM solutions in DMSO stored at −20° C.). After 20 minutes of incubation, the reactions were stopped by addition of 50 μl of 2% (v/v) acetic acid. Then, the absorbance of 100 μl at 405 nm was measured in microtitre plates with 96 wells (Inmunoplate Maxisorp, NUNC) using a Titertek Multiskan Plus 311 A0 (Flow Laboratories) automatic reader, and the nmoles of p-nitroaniline (p-NA) released per minute were calculated. In parallel, enzyme blanks with no substrate and substrate without enzyme were also processed. The standard calibration line was constructed with solutions of para-nitroanaline (p-NA) (Sigma) at known concentrations (0-1.25 mM) prepared from an initial 5 mM solution. This solution was prepared by dissolving p-NA beforehand in a minimum volume of ethanol.

[6] = Endopeptidase activity on synthetic peptide substrate for chymotrypsins/subtilisins; format: biochemical; settings: 1 mM substrate, 30° C., 20 minutes
Description: as §2
N-succinyl-Ala-Ala-Pro-Phe-pNA (Phe-pNA) for chymotrypsins/subtilisins (this latter belongs to the S8 family).
as §3, with “This solution was prepared by dissolving p-NA beforehand in a minimum volume of ethanol.” left out

[7] = Endopeptidase activity on synthetic peptide substrate for elastases; format: biochemical; settings: 1 mM substrate, 30° C., 20 minutes
Description: as §2
N-succinyl-Ala-Ala-Pro-Leu-pNA (Leu-pNA) for elastases, and
as §3

[8] = Effect of temperature on the activity of Pra1; format: biochemical
Description: In order to determine the optimum temperature for activity of Pra1, the enzymatic assay was performed over a range of temperatures comprised between 30° C. and 85° C. The effect of temperature on the stability of Pra1 was determined by preincubating the enzymatic solution in 100 mM sodium phosphate buffer pH 7.5 for 20 minutes at different temperatures (30-85° C.). The substrate used in these assays was the synthetic peptide N-acetyl-Ile-Glu-Ala-Arg-pNA, specific for trypsins.

| Molecule | effect on the lytic activity of Pra1 (Pra1) | reduction of activity after preincubation at pH 7 ([1]; pH 7) [%] | proteolytic activity after preincubation at pH 9 ([1]; pH 9) | isoelectric point (Ip) [2] | optimum pH for activity [3] | activity in buffers with pH greater than 8.5 or less than 6.5 ([3]; pH greater than 8.5 or less than 6.5) | Kcat [4] [s⁻¹] | Km [4] [µM] | specific activity on Arg-pNA [5] | lytic activity on Phe-pNA (chymotrypsin/subtilisin activity) [6] | lytic activity on Leu-pNA (elastase activity) [7] | activity at 30° C. ([8]; 30° C.) [%] | activity at 45° C. ([8]; 45° C.) [%] | activity above 55° C. ([8]; above 55° C.) | optimum temperature for activity ([8]; pH 7.5) [°C] |
| --- | --- | --- | --- | --- | --- | --- | --- | --- | --- | --- | --- | --- | --- | --- | --- |
| O=S(=O)(F)Cc1ccccc1 [PMSF] | drastically inhibited | – | – | – | – | – | – | – | – | – | – | – | – | – | – |
| NC(=O)CI [iodoacetamide, Iodoacetamide] | weak effect | – | – | – | – | – | – | – | – | – | – | – | – | – | – |
| Pra1: enzyme derived from T. harzianum with proteolytic activity, trypsin type serine-endopeptidase, amino acid sequence SEQ. ID. NO.: 1 (protein, listed as Trichoderma harzianum) MAPVLAIASVLAALPALTMGAAITPRGSDIVGGTTAALGEFPYIVSLSTGGSHFCGGVLIDSRTVVTAGHCTIDQRASSVKVRAGTLTWASGGTQVGVSSLTLHPSYTVDSQGVPDNDVGVWHLATAIPTSSTIGYATLPASGSDPAAGTTLTVAGWGTTSENSNSLPSTLRKVSVPVVARATCDSDYDGEISNNMFCAAVAAGGKDSCSGDSGGPIIDPSGTLVGVVSWGQGCAERGFPGVYTRLGNYVSFINSNRG | – | 40 | No proteolytic activity was detected | 4.7-4.9 | 7.5 | decreased rapidly | 39.64 | 220 | 94,800 U/mg | No lytic activity; also recorded: does not have activity | No lytic activity; also recorded: does not have activity | 95 | 16 | no activity was detected | ~35 |

Source: patent US20040115188A1, “Enzyme with proteolytic activity” (priority 2000, published 2004)
